According to patent US20070169210A1 (EMORY UNIVERSITY, published 2007):

Columns and labels:
[1] = molecular target: SED1, endogenous, of mouse sperm and male reproductive tract (mouse) (UniProt P21956); experiment: cell-based or functional assay
[2] = molecular target: zona pellucida of unfertilized (ovulated) oocytes; experiment: cell-based or functional assay
[3] = molecular target: T1, SED1 expressed in COS-7 cells (SED1-COS), on secreted membrane vesicles (mouse, UniProt P21956 23-463); experiment: blot overlay, zona glycoproteins resolved under reducing conditions, detected with anti-SED1
T1 construct: Cloned into pcDNA3.1 D/V5-His-Topo; Used as SED1-enriched membrane vesicles released by COS-7 cells; also called COS-expressed SED1
T1 sequence: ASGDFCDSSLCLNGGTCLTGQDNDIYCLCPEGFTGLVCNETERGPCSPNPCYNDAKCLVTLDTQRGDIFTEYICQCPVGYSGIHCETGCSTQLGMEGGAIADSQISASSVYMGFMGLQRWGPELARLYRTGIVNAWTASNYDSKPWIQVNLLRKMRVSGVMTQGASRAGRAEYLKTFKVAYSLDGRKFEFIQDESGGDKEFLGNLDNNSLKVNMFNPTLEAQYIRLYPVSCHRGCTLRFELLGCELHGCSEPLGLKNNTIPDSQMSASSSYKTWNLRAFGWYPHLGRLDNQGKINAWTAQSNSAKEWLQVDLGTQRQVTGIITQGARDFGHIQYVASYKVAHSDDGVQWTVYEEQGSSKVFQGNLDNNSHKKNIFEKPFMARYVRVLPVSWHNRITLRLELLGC
Method: (§1) The purification of zona pellucida glycoproteins was done as published elsewhere (Miller et al., 1992). The proteins were resolved on 10% polyacrylamide gels and transferred onto Immobilon-P membranes (Millipore) as above. The membranes were blocked in TBST containing 2% BSA for 1 hr at 25° C. Subsequently, membranes were incubated with either (His)₆-SED1, biotinylated (His)₆-SED1, SED1 prepared from COS-7 cells, or biotinylated WGA-lectin (positive control) for 1 hr at 25° C. and washed three times for 10 min in TBST, followed by incubation with either rabbit anti-SED1 and goat anti-rabbit-HRP, or Streptavidin-HRP (Zymed). The membranes were washed, developed, and exposed to film as above.
To determine which of the three zona glycoproteins could serve as the putative ligand for SED1, […]. When zona glycoproteins were resolved under reducing conditions, SED1 bound to glycoproteins comigrating as ZP1/ZP2 as well as ZP3 (FIG. 3D). Similar results were achieved using either biotinylated (His)₆-SED1 (D-SED1) detected by Streptavidin-HRP/ECL or recombinant (His)₆-SED1 (rSED1) detected by rabbit-anti-SED1 IgG and HRP-conjugated secondary antibodies (FIG. 3D). […]

[4] = molecular target: T2, ZP1 zona pellucida glycoprotein (murine, UniProt Q62005 21-546); experiment: blot overlay of zona glycoproteins resolved under nonreducing conditions, biotinylated (His)6-SED1, streptavidin-HRP
T2 construct: Native glycoprotein on a blot, non-reducing conditions
T2 sequence (looked up): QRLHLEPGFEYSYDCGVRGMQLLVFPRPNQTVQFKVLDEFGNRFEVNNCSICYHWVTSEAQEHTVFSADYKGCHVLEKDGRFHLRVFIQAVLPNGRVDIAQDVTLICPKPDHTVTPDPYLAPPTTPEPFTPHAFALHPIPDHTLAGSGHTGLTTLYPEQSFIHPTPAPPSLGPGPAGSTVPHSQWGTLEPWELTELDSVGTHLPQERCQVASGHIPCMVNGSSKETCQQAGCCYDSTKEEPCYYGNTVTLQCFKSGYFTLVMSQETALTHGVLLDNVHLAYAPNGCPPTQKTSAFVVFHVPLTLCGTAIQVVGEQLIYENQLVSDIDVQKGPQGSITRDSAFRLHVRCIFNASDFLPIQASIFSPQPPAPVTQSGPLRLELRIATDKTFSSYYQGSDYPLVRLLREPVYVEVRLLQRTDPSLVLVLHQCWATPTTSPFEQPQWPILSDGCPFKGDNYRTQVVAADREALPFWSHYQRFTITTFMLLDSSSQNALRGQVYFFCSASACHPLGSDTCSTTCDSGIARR
Method: as §1

Question: For “preimmune rabbit serum / preimmune IgG (antibody)”, which binding of GalT I null sperm to the zona, % of control (% of control binding at 200 µg/ml) [1] is on record?
Answer: The binding of GalT I null sperm to the zona, % of control (% of control binding at 200 µg/ml) was 91.

Question: How did the binding of GalT I null sperm to the zona, % of control (% of control at 3.8 µg/ml) [2] turn out when “(His)6-SED1 truncated fusion protein EEC (both EGF repeats, one discoidin/C domain)” was run?
Answer: The binding of GalT I null sperm to the zona, % of control (% of control at 3.8 µg/ml) was 21.

B1: ZP3 zona pellucida glycoprotein (other, murine, UniProt P10761 23-351, looked up)
chain: QTLWLLPGGTPTPVGSSSPVKVECLEAELVVTVSRDLFGTGKLVQPGDLTLGSEGCQPRVSVDTDVVRFNAQLHECSSRVQMTKDALVYSTFLLHDPRPVSGLSILRTNRVEVPIECRYPRQGNVSSHPIQPTWVPFRATVSSEEKLAFSLRLMEENWNTEKSAPTFHLGEVAHLQAEVQTGSHLPLQLFVDHCVATPSPLPDPNSSPYHFIVDFHGCLVDGLSESFSAFQVPRPRPETLQFTVDVFHFANSSRNTLYITCHLKVAPANQIPDKLNKACSFNKTSQSWLPVEGDADICDCCSHGNCSNSSSSQFQIHGPRQWSKLVSRN
notes: Native glycoprotein on a blot, reducing and non-reducing conditions
Question: Does B1 bind [3]?
Answer: Result: binds

B2: (His)6-SED1 fusion protein (full-length recombinant mouse SED1 expressed in E. coli) (other)
chain: HHHHHHASGDFCDSSLCLNGGTCLTGQDNDIYCLCPEGFTGLVCNETERGPCSPNPCYNDAKCLVTLDTQRGDIFTEYICQCPVGYSGIHCETGCSTQLGMEGGAIADSQISASSVYMGFMGLQRWGPELARLYRTGIVNAWTASNYDSKPWIQVNLLRKMRVSGVMTQGASRAGRAEYLKTFKVAYSLDGRKFEFIQDESGGDKEFLGNLDNNSLKVNMFNPTLEAQYIRLYPVSCHRGCTLRFELLGCELHGCSEPLGLKNNTIPDSQMSASSSYKTWNLRAFGWYPHLGRLDNQGKINAWTAQSNSAKEWLQVDLGTQRQVTGIITQGARDFGHIQYVASYKVAHSDDGVQWTVYEEQGSSKVFQGNLDNNSHKKNIFEKPFMARYVRVLPVSWHNRITLRLELLGC
modifications: biotinylated with Sulfo-NHS-LC-LC-Biotin in the bead assays and in the streptavidin-detected blot overlays
notes: also called rSED1; recombinant SED1
Question: Which results are given for B2?
Answer: binding of GalT I null sperm to the zona, % of control (% of control at 6 µg/ml) [2]: 27; binding result [4]: no binding

B3: SED1, endogenous, of mouse sperm and male reproductive tract (protein)
chain: T1 sequence
Question: Which results are given for B3?
Answer: sperm bound per egg, SED1 null sperm [2]: 1.45 sperm/egg; sperm bound per egg, wild-type sperm [2]: 11.2 sperm/egg
